Experiments:
[1] = target: human GLP-1 receptor (GLP-1R) (human) (UniProt P43220)
[2] = tested on: shrews (Suncus murinus); assay: Food intake and body weight; format: in vivo; settings: shrew, albiglutide 0.5 and 5 mg/kg i.p.

Chain of UniProt P43220 (P43220 24-463): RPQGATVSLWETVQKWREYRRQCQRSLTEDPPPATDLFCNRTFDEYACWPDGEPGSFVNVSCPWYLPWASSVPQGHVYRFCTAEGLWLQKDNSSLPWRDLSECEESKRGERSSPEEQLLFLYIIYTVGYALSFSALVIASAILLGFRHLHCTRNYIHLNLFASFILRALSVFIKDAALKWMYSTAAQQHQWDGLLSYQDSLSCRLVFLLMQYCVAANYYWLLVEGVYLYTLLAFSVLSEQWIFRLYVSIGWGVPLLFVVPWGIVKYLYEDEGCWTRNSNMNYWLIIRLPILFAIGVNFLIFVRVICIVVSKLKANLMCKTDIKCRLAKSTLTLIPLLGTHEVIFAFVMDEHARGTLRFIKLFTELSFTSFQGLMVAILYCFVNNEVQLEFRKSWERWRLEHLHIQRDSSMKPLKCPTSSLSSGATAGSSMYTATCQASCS

Question: Which EC50 of agonism at the GLP-1R [1] does the source give for HC-Cbi-Ex4 (complex) here?
Answer: Its EC50 of agonism at the GLP-1R is 3 nM.

Question: How did the “anorexia and body-weight loss” value [2] turn out when albiglutide was run?
Answer: The value was “did not cause anorexia and body-weight loss”.

From publication PMC7376604 (Cell reports, 2020)
